Test results: PMC4153549
pKd: −log10 of the molar value.

Test system: Grsf1-GST
Assay: EMSA
Details: 10 mM HEPES-NaOH pH 7.9, 25 mM KCl, 1.5 mM EDTA, 4% glycerol, 0.25 mM DTT, 7.5 ug/uL heparin, 25 ng/uL yeast tRNA, 20 min at 30 C; native 5% PAGE

Substance	pKd
Use1 5'UTR WT A(G)4A probe	6.28
Use1 dG4 probe (GGGG deleted from A(G)4A)	5.36
